Experimental data reported in FireProtDB (doi:10.1016/j.jmb.2003.10.041).

B1: Bacteriorhodopsin, P02945 (parent)
chain: MLELLPTAVEGVSQAQITGRPEWIWLALGTALMGLGTLYFLVKGMGVSDPDAKKFYAITTLVPAIAFTMYLSMLLGYGLTMVPFGGEQNPIYWARYADWLFTTPLLLLDLALLVDADQGTILALVGADGIMIGTGLVGALTKVYSYRFVWWAISTAAMLYILYVLFFGFTSKAESMRPEVASTFKVLRNVTVVLWSAYPVVWLIGSEGAGIVPLNIETLLFMVLDVSAKVGFGLILLRSRAIFGEAEAPEPSAGDGAAATSD

Variants of: B1
Settings: Halobacterium salinarum (strain ATCC 700922 / JCM 11081 / NRC-1); pH 6; 25 °C; SDS; Absorbance; sodium phosphate 10 mM; reversible: yes (90%); structure 2BRD; whole UniProt chain shown

Variant	ddG of mutation (higher = less stable) [kJ/mol]
L75A	-2.09
P63A	-0.418
M69A	-5.86
I65A	5.86
L71A	-1.26
L74A	-2.93
F67A	4.18
S72A	-0.418
T68A	0.418
M73A	3.35
